# Reference: US20180346564A1 (TEIJIN PHARMA, published 2018)
# [ ]: non-standard residue; d: D form. pT = C[C@@H](OP(=O)(O)O)[C@H](N)C(=O)O; pS = N[C@@H](COP(=O)(O)O)C(=O)O
# B1: chimeric antibody Ta1505 (antibody, human IgG1, kappa, V domains shown)
# VH: EVQLVESGGGLVQPKGSLKLSCAASGFAFNSFALNWVRQAPGKSLEWVVHIRSKTNNYATFYADSVKDRFTVSRDDSQSMVYLQMNNLKTEDTGIYYCVRRGPRDSWFGYWGQGTLVTVSA
# VL: DILMTQTPLSLPVSLGDQASISCRSSQNIVHSNGNTYLEWYLQKPGQSPKVLIYTVSNRFSGVPDRFSGSGSGTDFTLKISRVEAEDLGVYYCFQGSHLPLTFGGGTKLELKR
# notes: Mouse Ta1505 variable regions with human IgG1(kappa) constant regions. chim; also called the chimeric antibody; Chimera
# B2: humanized antibody L48H11 (antibody, human IgG1, kappa, V domains shown)
# VH: EVQLVESGGGLVQPGGSLRLSCAASGFTFSSFALNWVRQAPGKGLEWVGHIRSKTNNYATFYAASVKDRFTVSRDDSQNTAYLQMNSLKTEDTATYYCVRRGPRDSWFGYWGQGTLVTVSS
# VL: DIVMTQSPLSLPVTLGDPASISCRSSQNIVHSNGNTYLEWYQQKPGQSPQLLIYTVSNRFSGVPDRFSGSGSGTDFTLKISRVEAEDLGVYYCFQGSHLPLTFGGGTKVEIKR
# notes: VL48/VH11, human IgG1/kappa
# B3: humanized antibody L36H11 (antibody, human IgG1, kappa, V domains shown)
# VH: EVQLVESGGGLVQPGGSLRLSCAASGFTFSSFALNWVRQAPGKGLEWVGHIRSKTNNYATFYAASVKDRFTVSRDDSQNTAYLQMNSLKTEDTATYYCVRRGPRDSWFGYWGQGTLVTVSS
# VL: DIVMTQSPLSLPVTLGDPASISCRSSQSIVHSNGNTYLEWYQQKPGQSPQLLIYTVSNRFSGVPDRFSGSGSGTDFTLKISRVEAEDLGVYYCFQGSHLPLTFGGGTKVEIKR
# notes: VL36/VH11, human IgG1/kappa
# B4: humanized antibody L15H11 (antibody, human IgG1, kappa, V domains shown)
# VH: EVQLVESGGGLVQPGGSLRLSCAASGFTFSSFALNWVRQAPGKGLEWVGHIRSKTNNYATFYAASVKDRFTVSRDDSQNTAYLQMNSLKTEDTATYYCVRRGPRDSWFGYWGQGTLVTVSS
# VL: DIVMTQSPLSLPVTLGEPASISCRSSQSIVHSNGNTYLEWYQQKPGQSPRLLIYTVSNRFSGVPDRFSGSGSGTDFTLKISRVEAEDLGVYYCFQGSHLPLTFGGGTKVEIKR
# notes: VL15/VH11, human IgG1/kappa
# B5: humanized antibody L47H64 (antibody, human IgG1, kappa, V domains shown)
# VH: EVQLVESGGGLVQPGGSLRLSCAASGFTFNSFALNWVRQAPGKGLEWVVHIRSKTNNYATFYAASVKDRFTVSRDDSQNTAYLQMNSLKTEDTATYYCVRRGPRDSWFGYWGQGTLVTVSS
# VL: DIVMTQSPLSLPVTLGDPASISCRSSQSIVHSNGNTYLEWYQQKPGQSPQRLIYTVSNRFSGVPDRFSGSGSGTDFTLKISRVEAEDLGVYYCFQGSHLPLTFGGGTKVEIKR
# notes: VL47/VH64, human IgG1/kappa
# Key:
# [1] = target: T1, Peptide No. 8, pS412, H-NV(pS)STGSC-OH (human, SMILES CC(C)[C@H](NC(=O)[C@@H](N)CC(N)=O)C(=O)N[C@@H](COP(=O)(O)O)C(=O)N[C@@H](CO)C(=O)N[C@H](C(=O)NCC(=O)N[C@@H](CO)C(=O)N[C@@H](CS)C(=O)O)[C@@H](C)O); assay: ELISA, coated peptide
# T1 peptide: H-NV[pS]STGSC-OH
# Outline: (§1)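 Antibody binding was taken as the absorbance signal. Plates coated with peptides or their bovine serum albumin or keyhole limpet hemocyanin conjugates (1 μg/mL in cold PBS, 50 μL/well, overnight at 4 °C) and blocked with 3% BSA-PBS overnight at 4 °C were incubated with purified antibody at 150 ng/mL for 90 minutes at room temperature. Detection used alkaline phosphatase-labelled goat anti-human IgG (H+L) at 2000-fold dilution for 60 minutes, with pNPP developed for 40 minutes and read at 405 nm (reference 550 nm).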
# [2] = target: T2, Peptide No. 5, pT217, H-GC-GSRSRTPSLP(pT)PPTREPKKVAVV-OH (human, phosphothreonine (pT) at peptide position 13 (tau Thr217)); assay: ELISA, coated peptide
# T2 peptide: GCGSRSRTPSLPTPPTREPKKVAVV
# Outline: as §1
# [3] = target: T3, Peptide No. 4, pT212/pS214, H-GCGSPGTPGSRSR(pT)P(pS)LPTPPTREPK-OH (human, phosphothreonine (pT) at peptide position 14 (tau Thr212); phosphoserine (pS) at peptide position 16 (tau Ser214)); assay: ELISA, coated peptide
# T3 peptide: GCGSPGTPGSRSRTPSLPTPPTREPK
# Outline: as §1
# [4] = target: T4, Peptide No. 2, pS199, H-SGYS(pS)PGSPGC-OH (human, SMILES N[C@@H](CO)C(=O)NCC(=O)N[C@@H](Cc1ccc(O)cc1)C(=O)N[C@@H](CO)C(=O)N[C@@H](COP(=O)(O)O)C(=O)N1CCC[C@H]1C(=O)NCC(=O)N[C@@H](CO)C(=O)N1CCC[C@H]1C(=O)NCC(=O)N[C@@H](CS)C(=O)O); assay: ELISA, coated peptide
# T4 peptide: H-SGYS[pS]PGSPGC-OH
# Outline: as §1
# [5] = target: T5, Peptide No. 1, pS46, H-GLKE(pS)PLQT-OH (human, SMILES CC(C)C[C@H](NC(=O)CN)C(=O)N[C@@H](CCCCN)C(=O)N[C@@H](CCC(=O)O)C(=O)N[C@@H](COP(=O)(O)O)C(=O)N1CCC[C@H]1C(=O)N[C@@H](CC(C)C)C(=O)N[C@@H](CCC(N)=O)C(=O)N[C@H](C(=O)O)[C@@H](C)O); assay: ELISA, coated peptide
# T5 peptide: H-GLKE[pS]PLQT-OH
# Outline: as §1
# [6] = target: T6, Peptide No. 6, pT231, H-KVAVVR(pT)PPKSPS-OH (human); assay: ELISA, coated peptide
# T6 peptide: H-KVAVVR[pT]PPKSPS-OH
# Outline: as §1
# [7] = target: T7, Peptide No. 7, pS396/pS400/pS404, H-GC-RENAKAKTDHGAEIVYK(pS)PVV(pS)GDT(pS)PRHL-OH (human, phosphoserine (pS) at peptide positions 20, 24 and 28 (tau Ser396, Ser400, Ser404)); assay: ELISA, coated peptide
# T7 peptide: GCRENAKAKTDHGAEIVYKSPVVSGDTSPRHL
# Outline: as §1
# [8] = target: T8, Peptide No. 3, pS202, H-SSPG(pS)PGTPC-OH (human, SMILES C[C@@H](O)[C@H](NC(=O)CNC(=O)[C@@H]1CCCN1C(=O)[C@H](COP(=O)(O)O)NC(=O)CNC(=O)[C@@H]1CCCN1C(=O)[C@H](CO)NC(=O)[C@@H](N)CO)C(=O)N1CCC[C@H]1C(=O)N[C@@H](CS)C(=O)O); assay: ELISA, coated peptide
# T8 peptide: H-SSPG[pS]PGTPC-OH
# Outline: as §1
# [9] = target: T9, His-tagged non-phosphorylated tau protein 4R0N (human, UniProt P10636 2-758); assay: SPR Biacore T200, antigen immobilized
# T9 construct: Produced by Escherichia coli; negative control in SPR; also called ATGen Cat. No. ATGP0795
# Protocol: The binding affinities of the hyperphosphorylated tau protein 4R2N (hpTau), non-phosphorylated tau protein 4R0N, monophosphorylated tau peptide 1×P, triphosphorylated tau peptide 3×P, and non-phosphorylated tau peptide Non P with each antibody were measured with an SPR system Biacore T200 (GE Healthcare Japan), in accordance with the instruction manual for evaluation attached to the system.
# The His-tagged hpTau or Tau proteins were each immobilized on a sensor chip using an HBS-N buffer (code No. BR-1003-69) as the immobilization reaction solution and allowing a nickel chloride solution to react with the NTA sensor chip for bonding Ni to NTA. Subsequently, the sensor chip was activated with a mixed solution of N-ethyl-N′-(3-dimethylaminopropyl)-carbodiimide hydrochloride (1-ethyl-3-(3-dimethylaminopropyl)carbodiimide hydrochloride: EDC) and N-hydroxysuccinimide (NHS). A solution of each of the His-tagged proteins, adjusted to a concentration of 100 to 500 ng/mL with a 4-(2-hydroxyethyl)-1-piperazineethanesulfonic acid (HEPES) buffer (0.01 M HEPES, 150 mM KCl, 2 mM DTT, 1 mM EDTA, pH 7.2), was applied to the sensor chip, whereby the protein was immobilized on the sensor chip through covalent bonds with the Ni-NTA. The remaining active NHS was blocked with ethanolamine, and Ni ions were removed with an EDTA solution (Ni-affinity amine coupling: see International Publication No. WO2005/022156). The antigen peptides (1×P, 3×P, and Non P) were each immobilized on a sensor chip by activating the NTA sensor chip with a mixed solution of N-ethyl-N′-(3-dimethylaminopropyl)-carbodiimide (EDC) hydrochloride and N-hydroxysuccinimide (NHS), and then applying a solution of the antigen peptide diluted with a 10 mM sodium acetate buffer (pH: 4 to 4.5) to 1 to 10 μM to the sensor chip, whereby the peptide was covalently bound to the sensor chip. The remaining active NHS was blocked with ethanolamine. Thus, sensor chips immobilized respectively with the proteins and peptides mentioned above were produced.
# A CAPS buffer (pH 10.5) was applied to these sensor chips at 37° C. to stabilize the protein- or peptide-immobilized surfaces of the sensor chips.
# T9 sequence (P10636 other isoform, or with tags, fused parts or gaps limits assumed): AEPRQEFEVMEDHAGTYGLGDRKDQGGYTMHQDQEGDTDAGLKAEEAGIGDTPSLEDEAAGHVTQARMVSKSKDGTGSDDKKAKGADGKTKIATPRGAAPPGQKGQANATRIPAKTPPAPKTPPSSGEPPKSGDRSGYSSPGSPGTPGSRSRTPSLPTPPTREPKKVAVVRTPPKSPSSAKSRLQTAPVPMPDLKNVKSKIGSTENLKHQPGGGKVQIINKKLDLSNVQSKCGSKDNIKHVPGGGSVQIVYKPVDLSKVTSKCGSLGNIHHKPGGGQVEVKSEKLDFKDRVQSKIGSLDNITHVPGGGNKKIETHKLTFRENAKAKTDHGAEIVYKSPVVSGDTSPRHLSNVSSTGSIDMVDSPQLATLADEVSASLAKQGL
binder,measurement,setting,value
B1,binding result,[1],no binding (tested: OD value <0.5; antibody 150 ng/mL)
same,binding result,[2],no binding (tested: OD value <0.5; antibody 150 ng/mL)
same,binding result,[3],no binding (tested: OD value <0.5; antibody 150 ng/mL)
same,binding result,[4],no binding (tested: OD value <0.5; antibody 150 ng/mL)
same,binding result,[5],no binding (tested: OD value <0.5; antibody 150 ng/mL)
same,binding result,[6],no binding (tested: OD value <0.5; antibody 150 ng/mL)
same,binding result,[7],no binding (tested: OD value <0.5; antibody 150 ng/mL)
same,binding result,[8],no binding (tested: OD value <0.5; antibody 150 ng/mL)
same,binding result,[9],no binding (tested: 0.2 to 1 nM)
B2,binding result,[1],no binding (tested: OD value <0.5; antibody 150 ng/mL)
same,binding result,[2],no binding (tested: OD value <0.5; antibody 150 ng/mL)
same,binding result,[3],no binding (tested: OD value <0.5; antibody 150 ng/mL)
same,binding result,[4],no binding (tested: OD value <0.5; antibody 150 ng/mL)
same,binding result,[5],no binding (tested: OD value <0.5; antibody 150 ng/mL)
same,binding result,[6],no binding (tested: OD value <0.5; antibody 150 ng/mL)
same,binding result,[7],no binding (tested: OD value <0.5; antibody 150 ng/mL)
same,binding result,[8],no binding (tested: OD value <0.5; antibody 150 ng/mL)
same,binding result,[9],no binding (tested: 0.2 to 1 nM)
B3,binding result,[1],no binding (tested: OD value <0.5; antibody 150 ng/mL)
same,binding result,[2],no binding (tested: OD value <0.5; antibody 150 ng/mL)
same,binding result,[3],no binding (tested: OD value <0.5; antibody 150 ng/mL)
same,binding result,[4],no binding (tested: OD value <0.5; antibody 150 ng/mL)
same,binding result,[5],no binding (tested: OD value <0.5; antibody 150 ng/mL)
same,binding result,[6],no binding (tested: OD value <0.5; antibody 150 ng/mL)
same,binding result,[7],no binding (tested: OD value <0.5; antibody 150 ng/mL)
same,binding result,[8],no binding (tested: OD value <0.5; antibody 150 ng/mL)
same,binding result,[9],no binding (tested: 0.2 to 1 nM)
B4,binding result,[1],no binding (tested: OD value <0.5; antibody 150 ng/mL)
same,binding result,[2],no binding (tested: OD value <0.5; antibody 150 ng/mL)
same,binding result,[3],no binding (tested: OD value <0.5; antibody 150 ng/mL)
same,binding result,[4],no binding (tested: OD value <0.5; antibody 150 ng/mL)
same,binding result,[5],no binding (tested: OD value <0.5; antibody 150 ng/mL)
same,binding result,[6],no binding (tested: OD value <0.5; antibody 150 ng/mL)
same,binding result,[7],no binding (tested: OD value <0.5; antibody 150 ng/mL)
same,binding result,[8],no binding (tested: OD value <0.5; antibody 150 ng/mL)
same,binding result,[9],no binding (tested: 0.2 to 1 nM)
B5,binding result,[1],no binding (tested: OD value <0.5; antibody 150 ng/mL)
same,binding result,[2],no binding (tested: OD value <0.5; antibody 150 ng/mL)
same,binding result,[3],no binding (tested: OD value <0.5; antibody 150 ng/mL)
same,binding result,[4],no binding (tested: OD value <0.5; antibody 150 ng/mL)
same,binding result,[5],no binding (tested: OD value <0.5; antibody 150 ng/mL)
same,binding result,[6],no binding (tested: OD value <0.5; antibody 150 ng/mL)
same,binding result,[7],no binding (tested: OD value <0.5; antibody 150 ng/mL)
same,binding result,[8],no binding (tested: OD value <0.5; antibody 150 ng/mL)
